These results are taken from US20140050662.

This data set concerns PSA activatable agent A10 (compound A10).

As to “enzymatically active prostate specific antigen”, the “fluorescence activation (kinetic fluorescence readings, cleavage of the quenched peptide)” value is “Test agent (compound A10-0.5 µM final concentration of agent) was activated in the presence of active PSA (0.1 µM final concentration of activated enzyme)”.
